Assay results: patent US20160185837A1 (Medimmune Limited, priority 2013, published 2016)
pEC50: −log10 of the molar value.

Columns and labels:
[1] = PK by Activity
Description: Table printed on a drawing sheet, FIG. 3D-F
(§1) Circles: IV injection of 1 mg/kg, squares: subcutaneous injection of 1 mg/kg. Pharmacokinetic parameters Cmax, bioavailability (F %) and half-life T1/2 are compared in panel C.
(§2) Circles: IV injection of 1 mg/kg, squares: subcutaneous injection of 1 mg/kg. Pharmacokinetic parameters Cmax, bioavailability (F %) and half life T112 are compared in panel F.
First reader's note: Panel F of FIG. 3D-F; the pharmacokinetic parameters were derived from plasma levels measured by activity (sheet heading 'PK by Activity').

[2] = PK by Fc Detection
Description: Table printed on a drawing sheet, FIG. 3A-C
Title: PK by Fc Detection
as §1, §2
First reader's note: Panel C of FIG. 3A-C; the title 'PK by Fc Detection' is printed over the whole sheet, including plot panels A and B.

[3] = system: cyno GCGr (cGCGr); assay: cAMP assay, cells expressing cyno GCGr, 4.2% cyno serum albumin; type: cell-based, cynomolgus monkey; details: culture medium containing 4.2% cyno serum albumin
Text: In certain aspects, the assay can also be carried out in medium supplemented with serum albumin that corresponds to the receptor being tested, e.g., human serum albumin for testing cAMP activity at hGIPr or hGLP-1r, rat serum albumin for testing cAMP activity at rGIPr or rGLP-1r, and so on. Low protein binding 384-well plates (Greiner #781280) were used to perform eleven 1 in 5 serial dilutions of test samples that were made in assay medium. All sample dilutions were made in duplicate.
A frozen cryo-vial of cells expressing the receptor of interest was thawed rapidly in a water-bath, transferred to pre-warmed assay media and spun at 240×g for 5 minutes. Cells were re-suspended in assay buffer at an optimized concentration (e.g., hGLP-1r and hGIPr cells at 0.5×10^5 cells/ml). […]
cAMP levels were measured using a commercially available cAMP dynamic 2 HTRF kit (Cisbio, Cat #62AM4PEJ), following the two step protocol as per manufacturer's recommendations. […] Plates were incubated at room temperature for one hour and then read on an Envision (Perkin Elmer) using excitation wavelength of 320 nm and emission wavelengths of 620 nm & 665 nm. Data was transformed to % Delta F as described in manufacturer's guidelines and then transformed to percent activation of maximal native agonist response and analysed by 4-parameter logistic fit to determine EC50 values.

Row | pEC50 [3] | Substance | Cmax [1] [nM] | F (%) [1] [%] | t½ [1] [h] | Cmax [2] [ng/mL] | F (%) [2] [%] | t½ [2] [h]
1 |  | GLP-1a-Fc (HGEGTFTSDVSSYLEEQAAKEFIAWLVKGR; /note=“Description of Artificial Sequence Synthetic GLP-1 Analog polypeptide”) | 24 | 93 | 30 | 8500 | 59 | 79
2 | 11.44 | hGCG: native human glucagon, comparator in cAMP assays |  |  |  |  |  | 
